± gives the uncertainty stated by the source.
Assay: self-splicing fitness, log relative to wild type (ln ratio); higher = more splicing; Tetrahymena group I intron in knt gene, E. coli kanamycin selection, DiMSum; sequences stand for … in CUCUCU…GGAGGGAAAAGUUAUCAGGCAUGCACCUGGUAGCUAGUCUUUAAACCAAUAGAUUGCAUCGGUUUAAAAGGCAAGACCGUCAAAUUGCGGGAAAGGGGUCAACAGCCGUUCAGUACCAAGUCUCAGGGGAAACUUUGAGAUGGCCUUGCAAAGGGUAUGGUAAUAAGCUGACGGACAUGGUCCUAACCACGCAGCCAAGUCCUAAGUCAACAGAUCUUCUGUUGAUAUGGAUGCAGUUCACAGACUAAAUGUCGGUCGGGGAAGAUGUAUUCUUCUCAUAAGAUAUAGUCGGACCUCUCCUUAAUGGGAGCUAGCGGAUGAAGUGAUGCAACACUGGAGCCGCUGGGAACUAAUUUGUAUGCGAAAGUAUAUUGAUUAGUUUUGGAGUACUCGUGGUCG
In short: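 A randomised library covering all eight P1ex-region intron nucleotides was built with the intron in the knt kanamycin-resistance gene on pET-22b(+) and held in E. coli BL21(DE3). Cells were grown overnight at 37°C or 30°C on LB agar, with or without 25 μg/mL kanamycin, plus 100 μg/mL carbenicillin, 50 μM IPTG and 0.2% rhamnose, and pooled colonies were amplicon-sequenced on an Illumina HiSeq 2500. DiMSum fitness is the error-weighted combination of wild-type-normalised replicate fold changes, kanamycin versus none.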

Row | Sequence | self-splicing fitness (ln) (30 °C) | self-splicing fitness (ln) (37 °C)
1 | AUCCAGCAAUAUUACGACAA | -0.977 ± 0.095 | -0.337 ± 0.096
2 | AUCCAGCAAUAUUACGCGGG | -3.37 ± 0.13 | -2.42 ± 0.17
3 | AUCCAGCAAUAUUACGCGUA | -0.536 ± 0.089 | -0.499 ± 0.097
4 | AUCCAGCAAUAUUACGGACU | -0.507 ± 0.068 | 0.126 ± 0.082
5 | AUCCAGCAAUAUUACGGAUG | -2.21 ± 0.094 | -1.68 ± 0.12
6 | AUCCAGCAAUAUUACGGCUU | -0.0325 ± 0.076 | 0.438 ± 0.1
7 | AUCCAGCAAUAUUACGGGUA | -1.58 ± 0.1 | -1.21 ± 0.089
8 | AUCCAGCAAUAUUACGGUUA | -0.475 ± 0.05 | 0.0679 ± 0.054
9 | AUCCAGCAAUAUUACGGUUC | -4.5 ± 0.17 | -1.95 ± 0.17
10 | AUCCAGCAAUAUUACGUAAG | -1.59 ± 0.065 | -0.715 ± 0.087
11 | AUCCAGCAAUAUUACGUAUU | -1.84 ± 0.078 | -1.23 ± 0.093
12 | AUCCAGCAAUAUUACGUCCG | -2.45 ± 0.17 | -1.04 ± 0.15
13 | AUCCAGCAAUAUUACGUCGG | -2.71 ± 0.089 | -2.43 ± 0.13
14 | AUCCAGCAAUAUUACGUCUA | -0.908 ± 0.066 | -0.497 ± 0.07
15 | AUCCAGCAAUAUUACGUGGC | -3.98 ± 0.17 | -2.62 ± 0.16
16 | AUCCAGCAAUAUUACGUGUU | -2.74 ± 0.094 | -2.45 ± 0.12
17 | AUCGAGCAAUAUUACGAAUA | -3.09 ± 0.44 | -2.21 ± 0.35
18 | AUCGAGCAAUAUUACGACAG | -2.51 ± 0.12 | -3.22 ± 0.19
19 | AUCGAGCAAUAUUACGAUAG | -3.68 ± 0.22 | -3.23 ± 0.2
20 | AUCGAGCAAUAUUACGAUUC | -2.98 ± 0.34 | –
21 | AUCGAGCAAUAUUACGCACA | -2.46 ± 0.16 | -0.76 ± 0.11
22 | AUCGAGCAAUAUUACGCUAU | -3.38 ± 0.29 | -3.08 ± 0.24
23 | AUCGAGCAAUAUUACGGAUG | – | 0.184 ± 0.17
24 | AUCGAGCAAUAUUACGGCCG | -1.92 ± 0.22 | -0.981 ± 0.2
25 | AUCGAGCAAUAUUACGGCGC | -1.38 ± 0.091 | -0.856 ± 0.13

Row | Sequence | self-splicing fitness (ln) (30 °C) | self-splicing fitness (ln) (37 °C)
26 | AUCGAGCAAUAUUACGGCUG | -1.8 ± 0.24 | -0.221 ± 0.35
27 | AUCGAGCAAUAUUACGGGCC | -1.92 ± 0.27 | -2.19 ± 0.37
28 | AUCGAGCAAUAUUACGGGGG | -3.4 ± 0.25 | -2.67 ± 0.26
29 | AUCGAGCAAUAUUACGGUAA | -2.41 ± 0.29 | -3.15 ± 0.35
30 | AUCGAGCAAUAUUACGGUAG | – | -1.93 ± 0.27
31 | AUCGAGCAAUAUUACGGUCA | -2.98 ± 0.18 | -2.07 ± 0.18
32 | AUCGAGCAAUAUUACGGUUA | -3.3 ± 0.23 | -1.04 ± 0.13
33 | AUCGAGCAAUAUUACGGUUC | -2.93 ± 0.24 | –
34 | AUCGAGCAAUAUUACGUAAC | -3.15 ± 0.43 | –
35 | AUCGAGCAAUAUUACGUACA | -3.78 ± 0.33 | -1.72 ± 0.16
36 | AUCGAGCAAUAUUACGUCGC | -2.55 ± 0.28 | -2.21 ± 0.29
37 | AUCGAGCAAUAUUACGUCUA | -3.26 ± 0.32 | -0.994 ± 0.13
38 | AUCGAGCAAUAUUACGUGAU | – | -1.87 ± 0.43
39 | AUCGAGCAAUAUUACGUGCG | -4 ± 0.29 | -1.73 ± 0.13
40 | AUCUAGCAAUAUUACGAAGU | -0.522 ± 0.24 | -0.543 ± 0.31
41 | AUCUAGCAAUAUUACGACCG | -0.961 ± 0.39 | -0.253 ± 0.33
42 | AUCUAGCAAUAUUACGCAUA | -2.4 ± 0.18 | -1.69 ± 0.15
43 | AUCUAGCAAUAUUACGCAUU | -1.48 ± 0.1 | -0.414 ± 0.1
44 | AUCUAGCAAUAUUACGCCUC | -1.62 ± 0.19 | -1.33 ± 0.34
45 | AUCUAGCAAUAUUACGCUCU | -0.469 ± 0.11 | -0.244 ± 0.12
46 | AUCUAGCAAUAUUACGGACA | -0.495 ± 0.14 | 0.224 ± 0.13
47 | AUCUAGCAAUAUUACGGAGA | -2.16 ± 0.2 | -1.32 ± 0.16
48 | AUCUAGCAAUAUUACGGAUU | -4.46 ± 0.32 | -2.38 ± 0.23
49 | AUCUAGCAAUAUUACGGCGC | -0.932 ± 0.11 | -0.0721 ± 0.14
50 | AUCUAGCAAUAUUACGGCUG | -1.21 ± 0.14 | 0.594 ± 0.18

Row | Sequence | self-splicing fitness (ln) (30 °C) | self-splicing fitness (ln) (37 °C)
51 | AUCUAGCAAUAUUACGGUCG | -2.96 ± 0.22 | 0.125 ± 0.18
52 | AUCUAGCAAUAUUACGGUGG | -4.43 ± 0.46 | -2.53 ± 0.19
53 | AUCUAGCAAUAUUACGGUGU | -2.17 ± 0.076 | -0.462 ± 0.081
54 | AUCUAGCAAUAUUACGUAAG | -2.37 ± 0.12 | -1.16 ± 0.15
55 | AUCUAGCAAUAUUACGUAGU | -1.83 ± 0.096 | -0.758 ± 0.11
56 | AUCUAGCAAUAUUACGUCCG | -1.67 ± 0.2 | -1.42 ± 0.28
57 | AUCUAGCAAUAUUACGUCGG | -3.23 ± 0.2 | -2.72 ± 0.27
58 | AUCUAGCAAUAUUACGUCUG | -1.72 ± 0.14 | -0.625 ± 0.14
59 | AUGAAGCAAUAUUACGAAAA | -2.58 ± 0.17 | -0.92 ± 0.15
60 | AUGAAGCAAUAUUACGAAUA | -1.17 ± 0.11 | -0.537 ± 0.17
61 | AUGAAGCAAUAUUACGACUC | 0.055 ± 0.11 | 0.123 ± 0.13
62 | AUGAAGCAAUAUUACGACUG | -0.375 ± 0.097 | -0.617 ± 0.11
63 | AUGAAGCAAUAUUACGAUGG | -3.18 ± 0.18 | -1.92 ± 0.16
64 | AUGAAGCAAUAUUACGCAAU | -1.03 ± 0.11 | -0.743 ± 0.12
65 | AUGAAGCAAUAUUACGCCCA | 0.226 ± 0.22 | 0.0745 ± 0.25
66 | AUGAAGCAAUAUUACGCCUC | -0.0224 ± 0.2 | -1.19 ± 0.33
67 | AUGAAGCAAUAUUACGCGGC | -2.46 ± 0.31 | -2.26 ± 0.29
68 | AUGAAGCAAUAUUACGCUAU | -1.47 ± 0.091 | -1.21 ± 0.12
69 | AUGAAGCAAUAUUACGGACG | -0.554 ± 0.066 | 0.536 ± 0.091
70 | AUGAAGCAAUAUUACGGAGC | -3.69 ± 0.39 | -1.72 ± 0.2
71 | AUGAAGCAAUAUUACGGAUA | -0.747 ± 0.088 | -0.113 ± 0.11
72 | AUGAAGCAAUAUUACGGCGU | 0.47 ± 0.064 | 0.205 ± 0.078
73 | AUGAAGCAAUAUUACGGCUU | -4.22 ± 0.24 | -3.03 ± 0.21
74 | AUGAAGCAAUAUUACGGGCC | -1.73 ± 0.29 | -0.73 ± 0.22
75 | AUGAAGCAAUAUUACGGUAC | -1.71 ± 0.14 | -0.139 ± 0.13

Row | Sequence | self-splicing fitness (ln) (30 °C) | self-splicing fitness (ln) (37 °C)
76 | AUGAAGCAAUAUUACGGUGA | -0.607 ± 0.069 | 0.195 ± 0.096
77 | AUGAAGCAAUAUUACGGUGU | -1.33 ± 0.062 | -0.601 ± 0.078
78 | AUGAAGCAAUAUUACGGUUC | -1.29 ± 0.099 | -1.8 ± 0.15
79 | AUGAAGCAAUAUUACGUCCA | -0.138 ± 0.075 | 0.611 ± 0.11
80 | AUGAAGCAAUAUUACGUGGC | -3.92 ± 0.25 | -2.56 ± 0.31
81 | AUGAAGCAAUAUUACGUGUC | -2.97 ± 0.28 | -2.26 ± 0.34
82 | AUGAAGCAAUAUUACGUUUA | -0.538 ± 0.061 | -0.537 ± 0.079
83 | AUGCAGCAAUAUUACGAAGC | -3.21 ± 0.19 | -0.72 ± 0.21
84 | AUGCAGCAAUAUUACGACCC | -0.995 ± 0.2 | -0.303 ± 0.31
85 | AUGCAGCAAUAUUACGACUC | -0.57 ± 0.11 | 0.501 ± 0.11
86 | AUGCAGCAAUAUUACGACUG | -3.44 ± 0.23 | -2.8 ± 0.31
87 | AUGCAGCAAUAUUACGAGAA | -3.47 ± 0.32 | -2.64 ± 0.34
88 | AUGCAGCAAUAUUACGCCAC | -2.31 ± 0.47 | -2.1 ± 0.36
89 | AUGCAGCAAUAUUACGCGCA | -1.91 ± 0.14 | -1.39 ± 0.099
90 | AUGCAGCAAUAUUACGCGCU | -1.37 ± 0.097 | -1.22 ± 0.12
91 | AUGCAGCAAUAUUACGCUCA | -0.858 ± 0.061 | -0.215 ± 0.075
92 | AUGCAGCAAUAUUACGCUCG | -1.89 ± 0.11 | -0.774 ± 0.13
93 | AUGCAGCAAUAUUACGGAAC | – | -2.76 ± 0.36
94 | AUGCAGCAAUAUUACGGAAG | -3.07 ± 0.16 | -2.01 ± 0.2
95 | AUGCAGCAAUAUUACGGAGU | -1.78 ± 0.093 | -1.44 ± 0.11
96 | AUGCAGCAAUAUUACGGCCC | -0.0496 ± 0.14 | 0.777 ± 0.19
97 | AUGCAGCAAUAUUACGGCCG | -1.62 ± 0.27 | -1.05 ± 0.3
